What was measured:
[1] = target: chemokine receptors of MCP-3 on murine splenocytes and purified T cells; assay: cell-based or functional assay
[2] = target: chemokine receptor of IP-10 on murine splenocytes and purified T cells (murine) (UniProt O88410); assay: cell-based or functional assay
UniProt O88410, sequence (O88410 whole entry): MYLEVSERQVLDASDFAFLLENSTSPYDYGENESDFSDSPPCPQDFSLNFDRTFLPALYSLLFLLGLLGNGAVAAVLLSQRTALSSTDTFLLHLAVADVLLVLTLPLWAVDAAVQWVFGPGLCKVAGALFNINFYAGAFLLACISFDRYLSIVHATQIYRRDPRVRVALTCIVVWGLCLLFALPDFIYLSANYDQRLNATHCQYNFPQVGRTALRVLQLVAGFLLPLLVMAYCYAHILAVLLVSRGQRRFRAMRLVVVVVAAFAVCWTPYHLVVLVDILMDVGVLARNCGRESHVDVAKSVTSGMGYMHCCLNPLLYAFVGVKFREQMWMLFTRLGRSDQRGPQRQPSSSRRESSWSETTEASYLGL

MCP3FBscFv38MH (MCP-3 fused to scFv38 of the 38c13 lymphoma) (from UniProt Q03366 24-97)
in vitro chemotaxis of murine lymphocytes (48-well microchemotaxis chamber): concentration of maximum activity [1]: 100 µg/mL

B1: IP10FBscFv38MH (murine IP-10 fused to scFv38 of the 38c13 lymphoma) (protein, part only; not given: scFv38 VH and VL, tags, not shown: small tags and cut ends)
chain, part: IPLARTVRCNCIHIDDGPVRMRAIGKLEIIPASLSCPRVEIIATMKKNDEQRCLNPESKTIKNLMKAFSQKRSKRAPEFNDQAPKSLE
in vitro chemotaxis of murine lymphocytes (48-well microchemotaxis chamber): concentration of maximum activity [2]: 100 µg/mL
